Reference: patent publication US12144869B2, “Anti-ROR1 antibody conjugates, compositions comprising anti ROR1 antibody conjugates, and methods of making and using anti-ROR1 antibody conjugates” (Sutro Biopharma, Inc., priority 2022, dated 2024)

B1: SRP2196-A10 (antibody, V domains shown)
VH: EVQLVESGGGLVQPGGSLRLSCAASGFNITGYYIHWVRQAPGKGLEWVGYISPNSGATHYADSVKGRFTISADISKNTAYLQMNSLRAEDTAVHYCARDSRRYVRSWDYWGQGTLVTVSS
VL: QAVVTQESALTTSPGETVTLTCRSSTGAVTTSNYANWVQEKPDHLFTGLIGGTNKRAPGVPARFSGSLIGDKAALTITGAQTEDEAIYFCALWYSNLWVFGGGTKLTVL
B2: SRP2196-B10 (antibody, V domains shown)
VH: EVQLVESGGGLVQPGGSLRLSCAASGFNITGYYIHWVRQAPGKGLEWVGSITPLSGATSKADSVKGRFTISADTSKNTAYLQMNSLRAEDTAVYYCARDSRRYIRSWDYWGQGTLVTVSS
VL: QAVVTQESALTTSPGETVTLTCRSSTGAVTTSNYANWVQEKPDHLFTGLIGGTNKRAPGVPARFSGSLIGDKAALTITGAQTEDEAIYFCALWYSNLWVFGGGTKLTVL
B3: SRP2196-C01 (antibody, V domains shown)
VH: EVQLVESGGGLVQPGGSLRLSCAASGFNIIGYYIHWVRQAPGKGLEWVGSITPLSGATSKADSVKGRFTISADTSKNTAYLQMNSLRAEDTAVYYCARDSRRYIRSWDYWGQGTLVTVSS
VL: QAVVTQESALTTSPGETVTLTCRSSTGAVTTSNYANWVQEKPDHLFTGLIGGTNKRAPGVPARFSGSLIGDKAALTITGAQTEDEAIYFCALWYSNLWVFGGGTKLTVL
B4: SRP2196-A11 (antibody, V domains shown)
VH: EVQLVESGGGLVQPGGSLRLSCAASGFNITGYYIHWVRQAPGKGLEWVGQISPNSGTTYDADSVKGRFTISADTSKNTAYLQMNSLRAEDTAVYYCARDSRRYVRGWDYWGQGTLVTVSS
VL: QAVVTQESALTTSPGETVTLTCRSSTGAVTTSNYANWVQEKPDHLFTGLIGGTNKRAPGVPARFSGSLIGDKAALTITGAQTEDEAIYFCALWYSNLWVFGGGTKLTVL
B5: SRP2196-C04 (antibody, V domains shown)
VH: EVQLVESGGGLVQPGGSLRLSCAASGFNITGYYIHWVRQAPGKGLEWVGFIAPLSGSTHNADSVKGRFTISADTSKNTAYLQMNSLRAEDTAVYYCARESRRYVNPWDYWGQGTLVTVSS
VL: QAVVTQESALTTSPGETVTLTCRSSTGAVTTSNYANWVQEKPDHLFTGLIGGTNKRAPGVPARFSGSLIGDKAALTITGAQTEDEAIYFCALWYSNLWVFGGGTKLTVL
B6: SRP2196-B02 (antibody, V domains shown)
VH: EVQLVESGGGLVQPGGSLRLSCAASGFNITQYYIHWVRQAPGKGLEWVGYISPNSGQTYDADSVKGRFTISADTSKNTAYLQMNSLRAEDTAVYYCARDSRRYVRSWDYWGQGTLVTVSS
VL: QAVVTQESALTTSPGETVTLTCRSSTGAVTTSNYANWVQEKPDHLFTGLIGGTNKRAPGVPARFSGSLIGDKAALTITGAQTEDEAIYFCALWYSNLWVFGGGTKLTVL
B7: SRP2196-B06 (antibody, V domains shown)
VH: EVQLVESGGGLVQPGGSLRLSCAASGFNITGYYIHWVRQAPGKGLEWVGQISPNSGSTYSADSVKGRFTISADTSKNTAYLQMNSLRAEDTAVYYCARDSRRYVLSWDYWGQGTLVTVSS
VL: QAVVTQESALTTSPGETVTLTCRSSTGAVTTSNYANWVQEKPDHLFTGLIGGTNKRAPGVPARFSGSLIGDKAALTITGAQTEDEAIYFCALWYSNLWVFGGGTKLTVL
B8: SRP2196-C02 (antibody, V domains shown)
VH: EVQLVESGGGLVQPGGSLRLSCAASGFNITGYHIHWVRQAPGKGLEWVGFISPNSGWTYSADSVKGRFTISADTSKNTAYLQMNSLRAEDTAVYYCARDSRRYVRPFDYWGQGTLVTVSS
VL: QAVVTQESALTTSPGETVTLTCRSSTGAVTTSNYANWVQEKPDHLFTGLIGGTNKRAPGVPARFSGSLIGDKAALTITGAQTEDEAIYFCALWYSNLWVFGGGTKLTVL
B9: SRP2196-B04 (antibody, V domains shown)
VH: EVQLVESGGGLVQPGGSLRLSCAASGFNITEYYIHWVRQAPGKGLEWVGYISPNSGATYQADSVKGRFTISADTSKNTAYLQMNSLRAEDTAVYYCARDSRRYVRGWDYWGQGTLVTVSS
VL: QAVVTQESALTTSPGETVTLTCRSSTGAVTTSNYANWVQEKPDHLFTGLIGGTNKRAPGVPARFSGSLIGDKAALTITGAQTEDEAIYFCALWYSNLWVFGGGTKLTVL
B10: SRP2196-B08 (antibody, V domains shown)
VH: EVQLVESGGGLVQPGGSLRLSCAASGFNITGYYIHWVRQAPGKGLEWVGQISPNSGYTYLADSVKGRFTISADTSKNTAYLQMNSLRAEDTAVYYCARDSRRYVRGWDYWGQGTLVTVSS
VL: QAVVTQESALTTSPGETVTLTCRSSTGAVTTSNYANWVQEKPDHLFTGLIGGTNKRAPGVPARFSGSLIGDKAALTITGAQTEDEAIYFCALWYSNLWVFGGGTKLTVL
B11: SRP2196-C03 (antibody, V domains shown)
VH: EVQLVESGGGLVQPGGSLRLSCAASGFNITGYYIHWVRQAPGKGLEWVGQISPNSGSTYSADSVKGRFTISADTSKNTAYLQMSSLRAEDTAVYYCARDSRRYVLSWDYWGQGTLVTVSS
VL: QAVVTQESALTTSPGETVTLTCRSSTGAVTTSNYANWVQEKPDHLFTGLIGGTNKRAPGVPARFSGSLIGDKAALTITGAQTEDEAIYFCALWYSNLWVFGGGTKLTVL

Assays:
[1] = Differential scanning fluorimetry (protein thermal shift; TM1/TM2); format: physicochemical; settings: Table 11; melting temperature of the Fab domain
Procedure: A protein thermal shift assay was carried out by mixing the protein to be assayed with an environmentally sensitive dye (SYPRO Orange, Life Technologies Cat #S-6650) in a phosphate buffered solution (PBS), and monitoring the fluorescence of the mixture in real time as it underwent controlled thermal denaturation. Protein solutions between 0.2-2 mg/mL were mixed at a 1-1 volumetric ratio with a 1-500 PBS-diluted solution of SYPRO Orange (SYPRO Orange stock dye is 5000× in DMSO). 10 μL aliquots of the protein-dye mixture were dispensed in quadruplicate in a 384-well microplate (Bio-Rad Cat #MSP-3852), and the plate was sealed with an optically clear sealing film (Bio-Rad Cat #MSB-1001) and placed in a 384-well plate real-time thermocycler (Bio-Rad CFX384 Real Time System). The protein-dye mixture was heated from […], at increments of 0.1° C. per cycle (˜1.5° C. per minute), allowing 3 seconds of equilibration at each temperature before taking a fluorescence measurement. At the end of the experiment, the transition melting temperatures (TM1 and TM2) were determined using the Bio-Rad CFX manager software. TM1 represents the melting temperature of the Fc domain. TM2 represents the melting temperature of the Fab domain.
For the thermal stability of an antibody, the first melting peak (Tm1) coincides with the unfolding of the CH2 domain (FC stability), while the second melting peak (Tm2) occurs upon unfolding of the Fab domain.

human ROR1-Fz = target: T1, human ROR1-Fz (Homo sapiens, UniProt Q01973); assay: Biacore off-rate and kinetic analysis, ROR1-Fz; format: binding; settings: Table 11; SP34 light chain
T1 construct: Frizzled (Fz, residues 165-305); His6 (C); purchased Acro Biosystems; host or cells: HEK293
Procedure: Anti-Fc polyclonal antibodies were immobilized onto a CMS chip (GE Life Sciences) using amine coupling chemistry (from Amine Coupling Kit, GE Life Sciences). The immobilization steps were carried out at a flow rate of 25 μL/min in 1×HBS-EP+buffer (GE Life Sciences; 10× Stock diluted before use). The sensor surfaces were activated for 7 min with a mixture of NHS (0.05 M) and EDC (0.2 M). The Anti-Fc antibodies were injected over all 4 flow cells at a concentration of 25 ug/ml in 10 mM sodium acetate, pH 4.5, for 7 min. Ethanolamine (1 M, pH 8.5) was injected for 7 min to block any remaining activated groups. An average of 12,000 response units (RU) of capture antibody was immobilized on each flow cell.
Off-rate and kinetic binding experiments were performed at 25° C. using 1×HBS-EP+buffer. Test and control antibodies were injected over the anti-Fc surface at concentrations of 5-10 μg/mL for 12 seconds at a flow rate of 10 μL/min on flow cells 2, 3 and 4, followed by a buffer wash for 30 seconds at the same flow rate. Kinetic characterization of antibody samples was carried out with a range of antigen concentrations from 1-100 nM and 1 injection of 0 nM antigen (for example, 100, 50, 25, 6.25, 1.56 and 0 nM). After capturing ligand (antibody) on the anti-Fc surface, the analyte (hROR1, Fz or Kr domains, Acro Biosystems, Delaware) was bound for 180 seconds, followed by a 600 second dissociation phase at a flow rate of 50 μL/min. Between each ligand capture and analyte binding cycle, regeneration was carried out using 2 injections of 10 mM Glycine pH 2.0 for 30 seconds at 30 μL/min, followed by a 30 second buffer wash step.
The data was fit with the Biacore T200 Evaluation software, using a 1-1 Langmuir binding model. KD (affinity, nM) was determined as a ratio of the kinetic rate constants calculated from the fits of the association and dissociation phases.
For anti-CD3-LC-containing IgGs that had detectable ROR1-binding in ELISA (1944-A07 and 1987-C05 variants), those antibodies were further tested for binding by surface plasmon resonance (SPR). Binding kinetics were assessed to the ROR1-frizzled domain (hROR1-Fz) or the ROR1-extracellular domain (hROR1) for 1944-A07 and 1987-C05 variants, respectively. Briefly, anti-ROR1 antibodies were captured via anti-human Fc polyclonal antibodies immobilized to a CM5 chip, and ROR1 recombinant proteins were flowed across the surface to assess binding kinetics. hROR1 or hROR1-Fz domain (Acro Biosystems, Delaware) binding was tested at 100, 50, 25, 6.25, 1.5625 nM. The data was fit with the Biacore™ T200 Evaluation software, using a 1-1 Langmuir binding model. KD (affinity, nM) was determined as a ratio of the kinetic rate constants calculated from the fits of the association and dissociation phases.

T1 sequence (Q01973 165-305): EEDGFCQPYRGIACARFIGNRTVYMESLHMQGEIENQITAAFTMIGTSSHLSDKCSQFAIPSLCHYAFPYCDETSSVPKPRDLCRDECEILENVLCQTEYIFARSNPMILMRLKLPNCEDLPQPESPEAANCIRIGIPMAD

Molecule | TM2 (° C.) [1] | Biacore human ROR1-Fz ka (human ROR1-Fz) | Biacore human ROR1-Fz kd (human ROR1-Fz)
B1 | 68 °C | 172000 M⁻¹ s⁻¹ | 0.000479 s⁻¹
B2 | 70 °C | 128000 M⁻¹ s⁻¹ | 0.000334 s⁻¹
B3 | 70 °C | 125000 M⁻¹ s⁻¹ | 0.000457 s⁻¹
B4 | 73 °C | 191000 M⁻¹ s⁻¹ | 0.000792 s⁻¹
B5 | 70 °C | 131000 M⁻¹ s⁻¹ | 0.000704 s⁻¹
B6 | 69 °C | 163000 M⁻¹ s⁻¹ | 0.000227 s⁻¹
B7 | 70 °C | 142000 M⁻¹ s⁻¹ | 0.000423 s⁻¹
B8 | 67 °C | 119000 M⁻¹ s⁻¹ | 0.00036 s⁻¹
B9 | 72 °C | 127000 M⁻¹ s⁻¹ | 0.000352 s⁻¹
B10 | 75 °C | 156000 M⁻¹ s⁻¹ | 0.000488 s⁻¹
B11 | 69 °C | 143000 M⁻¹ s⁻¹ | 0.000461 s⁻¹
